Source: patent US20180369326A1 (LA JOLLA INSTITUTE FOR ALLERGY AND IMMUNOLOGY, published 2018)
Changes are numbered by the printed parent chain.

T1: WT ICOS (wild-type inducible T-cell costimulator, transfected into Jurkat JTAg T cells) (Homo sapiens (Human), UniProt Q9Y6W8 21-199)
T1 sequence: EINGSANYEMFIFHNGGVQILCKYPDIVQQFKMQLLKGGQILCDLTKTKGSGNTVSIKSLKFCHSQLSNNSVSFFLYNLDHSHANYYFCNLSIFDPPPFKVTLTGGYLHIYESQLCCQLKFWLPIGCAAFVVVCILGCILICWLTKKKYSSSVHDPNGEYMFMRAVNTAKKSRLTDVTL

B1: TANK-binding kinase 1 (TBK1), endogenous, human cell lines (Jurkat JTAg, HEK293T) (enzyme, UniProt Q9UHD2 1-729, looked up)
chain: MQSTSNHLWLLSDILGQGATANVFRGRHKKTGDLFAIKVFNNISFLRPVDVQMREFEVLKKLNHKNIVKLFAIEEETTTRHKVLIMEFCPCGSLYTVLEEPSNAYGLPESEFLIVLRDVVGGMNHLRENGIVHRDIKPGNIMRVIGEDGQSVYKLTDFGAARELEDDEQFVSLYGTEEYLHPDMYERAVLRKDHQKKYGATVDLWSIGVTFYHAATGSLPFRPFEGPRRNKEVMYKIITGKPSGAISGVQKAENGPIDWSGDMPVSCSLSRGLQVLLTPVLANILEADQEKCWGFDQFFAETSDILHRMVIHVFSLQQMTAHKIYIHSYNTATIFHELVYKQTKIISSNQELIYEGRRLVLEPGRLAQHFPKTTEENPIFVVSREPLNTIGLIYEKISLPKVHPRYDLDGDASMAKAITGVVCYACRIASTLLLYQELMRKGIRWLIELIKDDYNETVHKKTEVVITLDFCIRNIEKTVKVYEKLMKINLEAAELGEISDIHTKLLRLSSSQGTIETSLQDIDSRLSPGGSLADAWAHQEGTHPKDRNVEKLQVLLNCMTEIYYQFKKDKAERRLAYNEEQIHKFDKQKLYYHATKAMTHFTDECVKKYEAFLNKSEEWIRKMLHLRKQLLSLTNQCFDIEEEVSKYQEYTNELQETLPQKMFTASSGIKHTMTPIYPSSNTLVEMTLGMKKLKEEMEGVVKELAENNHILERFGSLTMDGGLRNVDCL
notes: Species follows from the human cell lines; also called endogenous TBK1
B2: ICOS with alanine-substituted IProx motif (170…179 to 170AAAAAAAAAA179) (receptor)
chain: T1 sequence with S150A, S151A, S152A, V153A, H154A, D155A, P156A, N157A, G158A, E159A
notes: Expressed from a plasmid in Jurkat JTAg cells; also called mIProx; IProx mutant

Experiments:
[1] = target: WT ICOS (wild-type inducible T-cell costimulator, transfected into Jurkat JTAg T cells) (Homo sapiens (Human)) (UniProt Q9Y6W8); test: SILAC mass spectrometry of anti-ICOS IPs from Jurkat cells expressing WT ICOS or mIProx, stimulated with anti-CD3 plus anti-ICOS
[2] = target: T1, WT ICOS (wild-type inducible T-cell …); test: as above
Description: FACS-sorted GFP⁺ transduced cells were stimulated with α-CD3 plus α-ICOS mAbs for 2 minutes. 300 μg of the protein mixture derived from WT and mutant cell lysate were mixed at a 1:1 ratio, and immunoprecipitated with anti-ICOS mAb. Immunoprecipitants were subjected to an on-bead digestion protocol. The proteins were reduced with 100 mM Tris-HCl/8 M urea/5 mM tris(2-carboxyethyl)phosphine, and alkylated with 10 mM iodoacetamide. The solution was diluted 1:4 and digested with 1 μg of trypsin at 37° C. overnight. […] MS analysis was performed using an LTQ-Orbitrap Velos mass spectrometer (Thermo Fisher). […] The experiments were biologically repeated in four replicates, including medium isotope type swapping (heavy or light) between WT and mutant cells.

[3] = target: T2, p85α, the regulatory subunit of PI3K, endogenous, Jurkat cells (human, UniProt P27986 2-724); test: co-IP (anti-ICOS IP, immunoblot), transfected Jurkat cells stimulated with anti-CD3 plus anti-ICOS (FIG. 2b, 2c)
T2 construct: Species follows from the human cell line; also called p85a
T2 sequence (P27986 2-724): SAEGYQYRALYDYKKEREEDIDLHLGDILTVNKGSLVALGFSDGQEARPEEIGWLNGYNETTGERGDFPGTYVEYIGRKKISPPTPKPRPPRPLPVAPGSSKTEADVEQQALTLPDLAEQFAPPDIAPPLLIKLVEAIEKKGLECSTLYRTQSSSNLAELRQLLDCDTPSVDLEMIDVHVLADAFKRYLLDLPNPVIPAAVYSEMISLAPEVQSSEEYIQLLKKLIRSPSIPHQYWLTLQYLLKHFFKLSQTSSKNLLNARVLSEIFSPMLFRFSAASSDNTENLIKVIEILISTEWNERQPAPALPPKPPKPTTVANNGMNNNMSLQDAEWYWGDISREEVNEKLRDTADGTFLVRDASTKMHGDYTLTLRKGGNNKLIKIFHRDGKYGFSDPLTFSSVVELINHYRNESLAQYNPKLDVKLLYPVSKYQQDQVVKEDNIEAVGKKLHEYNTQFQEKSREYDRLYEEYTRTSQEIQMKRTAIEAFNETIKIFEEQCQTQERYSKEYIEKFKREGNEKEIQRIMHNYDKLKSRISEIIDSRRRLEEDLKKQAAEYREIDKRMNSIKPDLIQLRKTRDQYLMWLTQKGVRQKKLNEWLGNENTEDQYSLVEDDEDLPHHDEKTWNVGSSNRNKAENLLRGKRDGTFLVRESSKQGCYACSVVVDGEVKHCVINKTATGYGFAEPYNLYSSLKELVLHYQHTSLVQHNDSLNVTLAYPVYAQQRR
Source text: IPs or whole cell lysates (WCL) were immunoblotted with the indicated Abs. 5% WCL was used as input to control for IP Western. […] Jurkat T cells transfected with WT ICOS, mIProx, YF or tailless (TL) ICOS plasmids were stimulated with anti-CD3 plus −ICOS mAbs prior to IP and immunoblotting. […] In vitro activated primary mouse CD4⁺ T cells were stimulated with anti-CD3 plus the indicated costimulatory mAbs, and IP or WCL were subjected to immunoblotting with the indicated Abs. Shown are representative of three experiments.
The human leukemic Jurkat T cell line, JTAg, was previously described (Li, J et al. J Immunol 2013, 191(1): 200-207; Rolf J et al., J Immunol 2010, 185(7): 4042-4052) and the HEK 293T cell line was obtained from ATCC. These cell lines have not been recently STR profiled but tested negative for mycoplasma contamination. JTAg cells in logarithmic growth phase were transfected with plasmid DNAs by electroporation and incubated for 24 hours.

Molecule	Fold Change (differential binding ratio, WT ICOS IP vs mIProx ICOS IP) [1]	also measured
BAG6 (chaperone), endogenous, Jurkat cells (from UniProt P46379 1-1132)	3.13 fold	–
MYCBP2 (E3 ligase), endogenous, Jurkat cells (from UniProt O75592 1-4678) (enzyme)	5.26 fold	–
GAK (cell cycle kinase), endogenous, Jurkat cells (from UniProt O14976 2-1311) (enzyme)	2.17 fold	–
NAA10 (acetyltransferase), endogenous, Jurkat cells (from UniProt P41227 1-235) (enzyme)	2.95 fold	–
Erlin2 (ER protein), endogenous, Jurkat cells (from UniProt O94905 1-339)	1.81 fold	–
SLP76 (TCR signaling), endogenous, Jurkat cells (from UniProt Q13094 1-533)	2.08 fold	–
B1	–	Fold Change (differential binding ratio, WT ICOS IP vs mIProx ICOS IP) [2]: 7.69 fold
B2	–	binding result [3]: binds
